In PMC9979629 (Antiviral Research, 2023):

Biological target: His-tagged wild-type SARS-CoV-2 RBD (SARS-CoV-2, UniProt P0DTC2)
Assay: ELISA

B1: K102.1 (antibody, V domains shown)
VH: EVQLLESGGGLVQPGGSLRLSCAASGFTFSDYAMSWVRQAPGKGLEWVSWIYSGSGNKYYADSVKGRFTISRDNSKNTLYLQMNSLRAEDTAVYYCARFPIARTSNSQSSYDGMDVWGQGTLVTVSS
VL: QSVLTQPPSASGTPGQRVTISCSGSSSNIGSNAVSWYQQLPGTAPKLLIYADNKRPSGVPDRFSGSKSGTSASLAISGLRSEDEADYYCGAWDSSLNAYVFGGGTKLTVL
  binding result: binds

B2: K102.2 (antibody, V domains shown)
VH: EVQVLESGGGLVQPGGSLRLSCAASGFTFSSYDMSWVRQAPGKGLEWVSGISYSGGSTYYADSVKGRFTISRDNSKNTLYLQMNSLRAEDTAVYYCARDVNFVPLVTFDYWGQGTLVTVSS
VL: QSVLTQPPSASGTPGQRVTLSCTGSSSNIGSNSVTWYQQLPGTAPKLLIYDDNQRPSGVPDRFSGSKSGTSASLAISGLRSEDEADYYCGTWDYSLSAYVFGGGTKLTVL
  binding result: binds
